Results as given in paper PMC12948240.

Assays:
[1] = immunoblot, HEK293T; conditions: glycan lost; control: FOXK1 WT, PFOS-treated
[2] = cycloheximide chase, PES1 immunoblot, HEK293T; conditions: glycan lost; control: FOXK1 WT
[3] = PES1 IP, HA-Ub blot, MG132, HEK293T; conditions: glycan lost; control: FOXK1 WT, PFOS-treated

B1: forkhead box k1 (FOXK1): FOXK1 T573A (protein)
parent chain: MAEVGEDSGARALLALRSAPCSPVLCAAAAAAAFPATTSPPPPAQPPPGPPALPAEPGPGPVPSTVATATTTAPALVAAAAASVRQSPGPALARLEGREFEFLMRQPSVTIGRNSSQGSVDLSMGLSSFISRRHLQLSFQEPHFYLRCLGKNGVFVDGAFQRRGAPALQLPQQCTFRFPSTAIKIQFTSLYHKEEAPASPLRPLYPQISPLKIHIPEPDLRSLVSPIPSPTGTISVPNSCPASPRGAGSSSYRFVQNVTSDLQLAAEFAAKAASEQQADASGGDSPKDESKPPYSYAQLIVQAISSAQDRQLTLSGIYAHITKHYPYYRTADKGWQNSIRHNLSLNRYFIKVPRSQEEPGKGSFWRIDPASEAKLVEQAFRKRRQRGVSCFRTPFGPLSSRSAPASPTHPGLMSPRSSGLQTPECLSREGSPIPHDPDLGSKLASVPEYRYSQSAPGSPVSAQPVIMAVPPRPSNLVAKPVAYMPASIVTSQQPSGHAIHVVQQAPTVTMVRVVTTSANSANGYILASQGSTGTSHDTAGTAVLDLGNEARGLEEKPTIAFATIPAASRVIQTVASQMAPGVPGHTVTILQPATPVTIGQHHLPVRAVTQNGKHAVPTNSLTGNAYALSSPLQLLAAQASSSTPVVITRVCEVGPEEPAAAVSVAANAAPTPAASTTTSASSSGEPEVKRSRVEEPGGTATTQPTAMAATGPQGPGTGE
For B1, the “other: PES1 protein level” value [1] was “decreases”, the “other: PES1 degradation” value [2] was “increases” and the “other: PES1 ubiquitination” value [3] was “increases”.
